The values that follow come from paper PMC7064775, “Cyclic di-GMP Signaling in Bacillus subtilis Is Governed by Direct Interactions of Diguanylate Cyclases and Cognate Receptors” (mBio, 2020).

B1: GST-YdaK-ΔN111 (domain or fragment, Bacillus subtilis NCIB 3610, UniProt P96585 112-283, looked up)
chain: DITAELRRSMTRLQSEIKSYVAVDRVTGFDNKQRMKLELSEEIKRAERYGNSFVFLLLHMHYFKEFKSLYGEKETDRLFQYVGQQIRTSVRETDKKFRPSDERIGIVLTHTPAEHMPAVLTKLKKQLDTYQLENGKYVSLTFHVCYLPYRNDIQTADQFLEELENEMMMNEL
notes: c-di-GMP receptor YdaK of Bacillus subtilis NCIB 3610, soluble domain (degenerated GGDEF domain), residues 112 to 283 (construct pAT03c); also called pAT03c; source: E. coli BL21(DE3), purified (GSTrap FF, SEC); not shown: GST, N-terminal, kept
B2: GST-His6-YdaK-ΔN111 (domain or fragment, Bacillus subtilis NCIB 3610, UniProt P96585 112-283, looked up)
chain: B1 chain
notes: c-di-GMP receptor YdaK of Bacillus subtilis NCIB 3610, soluble domain, residues 112 to 283 (construct pAT03a); also called pAT03a; not shown: GST, N-terminal, kept
B3: His6-YdaK-ΔN111 (domain or fragment, Bacillus subtilis NCIB 3610, UniProt P96585 112-283, looked up)
chain: B1 chain
notes: c-di-GMP receptor YdaK of Bacillus subtilis NCIB 3610, soluble domain, residues 112 to 283 (construct pAT03b); also called native YdaK; pAT03b; source: E. coli BL21(DE3), purified (Ni-NTA, SEC); not shown: His6, N-terminal, kept
B4: GST-His6-DgrA (natural protein, Bacillus subtilis NCIB 3610, UniProt P38491 1-217, looked up)
chain: MIEIGENVLLEYIEENELKKAKSKAVSIENNELLIAYPVDVVTGRTVILHNDMEVTVEFVGKDEVPYRFISRIKGKVKDKLQMICLEMPPREKMKRIQRRQYVRTDAVLDVQIQPGNEEEIRTLSYNISAGGIAVVLADGLSFQSGESLRLIIRLPEEEHTRQIETEAVVRRIFNDPKSEKRKMTLEYSEIAAGDQQALLQYCIRRQLNKRRKARME
notes: PilZ domain c-di-GMP receptor DgrA of Bacillus subtilis NCIB 3610, residues 1 to 217, full length (construct pPB48); also called GST-His-DgrA; PilZ protein DgrA; source: E. coli BL21(DE3), purified (Ni-NTA, SEC); not shown: GST, N-terminal, kept; His6, N-terminal, kept
B5: His6-DgcK-ΔN175 (domain or fragment, Bacillus subtilis NCIB 3610, UniProt P54595 176-359, looked up)
chain: DHETNAHLLFKQYKFQAHFDFLTGVYNRRKFEETTKALYQQAADTPHFQFALIYMDIDHFKTINDQYGHHEGDQVLKELGLRLKQTIRNTDPAARIGGEEFAVLLPNCSLDKAARIAERIRSTVSDAPIVLTNGDELSVTISLGAAHYPNNTEQPGSLPILADQMLYKAKETGRNRVCFSEKKE
notes: Diguanylate cyclase DgcK of Bacillus subtilis NCIB 3610, soluble domain, residues 176 to 359 (construct pAT02b); also called His-DgcK-ΔN175; soluble domain of DgcK; source: E. coli BL21(DE3), purified (Ni-NTA, SEC); also coexpressed with YdaK-ΔN111 in E. coli BL21(DE3), in lysate; not shown: His6, N-terminal, kept

The target in assay [1] is T1, YdaK-ΔN111 (Bacillus subtilis, UniProt P96585).
T1 construct: soluble degenerate GGDEF domain, residues 112 to 283 (4 TM helices removed), from E. coli BL21(DE3)
Put plainly: hydrogen-deuterium exchange mass spectrometry. It is filed as binding. To be noted: 50 µM protein, 1 mM c-di-GMP; pH 7.5, 20 mM MgCl2, 25 °C; I-site (RXXD).

Another assay addresses T2, DgcK-ΔN175 (Bacillus subtilis, UniProt P54595).
T2 construct: soluble GGDEF domain, residues 176 to 359 (6 TM helices removed); N-terminal His6 or GST-His6, from E. coli BL21(DE3)
Put plainly: HPLC of nucleotide co-purified with the denatured protein. It is filed as binding. To be noted: ligand co-purified from E. coli host.

Assay [2] addresses T3, YdaK-ΔN111 (Bacillus subtilis, UniProt P96585, R202A).
T3 construct: soluble degenerate GGDEF domain, residues 112 to 283 (4 TM helices removed), from E. coli BL21(DE3)
Put plainly: hydrogen-deuterium exchange mass spectrometry. To be noted: 50 µM protein, 1 mM c-di-GMP; pH 7.5, 20 mM MgCl2, 25 °C; I-site mutant, tested for loss of binding.

Assay [3] concerns the target B5. Put plainly: pull-down; 2 nmol His6-DgcK-ΔN175 immobilised on nickel-Sepharose beads, 20 nmol prey, with or without added c-di-GMP; buffer A (20 mM HEPES-Na pH 7.5, 250 mM NaCl, 20 mM MgCl2, 20 mM KCl, 0.05% Tween); elution with 500 mM imidazole; Coomassie-stained SDS-PAGE. The note with it: both partners purified.
The target of assay [4] is B5. Put plainly: pull-down; 2 nmol GST-His6-YdaK-ΔN111 (or GST) immobilised on glutathione-Sepharose 4B, 20 nmol His6-DgcK-ΔN175, with or without added c-di-GMP; 4°C, buffer A (20 mM HEPES-Na pH 7.5, 250 mM NaCl, 20 mM MgCl2, 20 mM KCl, 0.05% Tween); Coomassie-stained SDS-PAGE. To be noted: both partners purified.
A further assay concerns the target T4, GST-His6-DgcK-ΔN175 (Bacillus subtilis NCIB 3610, UniProt P54595 176-359).
T4 construct: Diguanylate cyclase DgcK of Bacillus subtilis NCIB 3610, soluble domain, residues 176 to 359 (construct pAT02a); also called pAT02a; source: E. coli BL21(DE3), purified (Ni-NTA, SEC); not shown: GST, N-terminal, kept; His6, N-terminal, kept
T4 sequence (looked up): B5 chain
Put plainly: pull-down; 2 nmol GST-His6-DgcK-ΔN175 immobilised on glutathione-Sepharose 4B, 20 nmol His6-YdaK-ΔN111 or its R202A variant, with or without added c-di-GMP; 4°C, buffer A; Coomassie-stained SDS-PAGE. To be noted: both partners purified.

The next assay deals with T5, DgcP-StrepII (Bacillus subtilis NCIB 3610, UniProt O34325 1-579).
T5 construct: soluble diguanylate cyclase DgcP of Bacillus subtilis NCIB 3610, residues 1 to 579, full length (construct pPB25); also called pPB25; source: E. coli BL21(DE3), purified (StrepTrap HP, SEC); not shown: StrepII, C-terminal, kept
T5 sequence (looked up): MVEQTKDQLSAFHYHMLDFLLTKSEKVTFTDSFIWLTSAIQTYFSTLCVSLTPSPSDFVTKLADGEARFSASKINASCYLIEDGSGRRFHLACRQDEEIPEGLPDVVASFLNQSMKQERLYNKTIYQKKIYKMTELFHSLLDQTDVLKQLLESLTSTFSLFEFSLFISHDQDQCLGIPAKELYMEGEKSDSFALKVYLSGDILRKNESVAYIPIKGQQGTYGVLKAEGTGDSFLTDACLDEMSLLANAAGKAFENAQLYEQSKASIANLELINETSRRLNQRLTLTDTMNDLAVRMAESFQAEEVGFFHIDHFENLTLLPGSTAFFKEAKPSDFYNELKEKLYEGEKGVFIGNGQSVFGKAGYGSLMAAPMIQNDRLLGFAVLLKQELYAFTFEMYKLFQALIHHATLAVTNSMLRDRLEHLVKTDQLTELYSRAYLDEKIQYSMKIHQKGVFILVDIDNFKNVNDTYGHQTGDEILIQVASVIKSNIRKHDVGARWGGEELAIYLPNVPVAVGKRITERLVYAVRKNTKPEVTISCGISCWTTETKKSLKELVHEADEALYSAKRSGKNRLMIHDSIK
Put plainly: pull-down; 2 nmol DgcP-StrepII immobilised on Strep-Tactin-Sepharose, 20 nmol GST-His6-DgrA, with or without 2 mM c-di-GMP; buffer A; elution with 50 mM D-biotin; Coomassie-stained SDS-PAGE. The note with it: both partners purified.

The target of the assay “GST-His6-DgrA” is B4. Put plainly: pull-down; 2 nmol GST-His6-DgrA (or GST control) immobilised on glutathione-Sepharose beads, 20 nmol His6-DgcK-ΔN175, with or without 2 mM c-di-GMP; 4°C, buffer A; Coomassie-stained SDS-PAGE. To be noted: both partners purified.

T3 sequence (P96585 112-283 R202A): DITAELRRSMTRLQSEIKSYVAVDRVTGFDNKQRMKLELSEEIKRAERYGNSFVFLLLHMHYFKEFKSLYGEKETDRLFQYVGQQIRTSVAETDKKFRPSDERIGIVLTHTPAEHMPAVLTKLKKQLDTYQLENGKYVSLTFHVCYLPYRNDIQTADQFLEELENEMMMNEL

`Nc1nc2c(ncn2[C@@H]2O[C@@H]3COP(=O)(O)O[C@H]4[C@@H](O)[C@H](n5cnc6c(=O)[nH]c(N)nc65)O[C@@H]4COP(=O)(O)O[C@H]3[C@H]2O)c(=O)[nH]1` [c-di-GMP]: the “decrease in H/D exchange” value on YdaK-ΔN111 [1] is “presence of c-di-GMP resulted in a strong decrease in H/D exchange in many parts of YdaK”. Moreover, the loading on DgcK-ΔN175 is ~ 25%. On YdaK-ΔN111 [2], the “no alterations in HDX” value was “indicating the inability of c-di-GMP to bind to this variant”. With B1, the binding result with His6-DgcK-ΔN175 [3] is recorded as “binds”. For B2, in the assay with His6-DgcK-ΔN175 [4], the binding result is reported as “binds”. For the molecule B3, the binding result with GST-His6-DgcK-ΔN175 was “binds”.

B4: the binding result with DgcP-StrepII was “binds”. As for B5, in the assay with GST-His6-DgrA, the binding result is recorded as “binds”.
